Data from paper PMC10249821.

Biological target: gp41 of HIV-1 IIIB (HIV-1 IIIB) (UniProt P04578)

| Substance | IC50 of inhibition of HIV-1 IIIB infection of MT-4 cells (MTT assay of virus-induced cytopathic effect, 5 days post infection) [nM] |
| --- | --- |
| Enfuvirtide Primary Reference Standard (peptide) | 18 |
| biosynthesized enfuvirtide (peptide) | 45.3 |
